# Measured values published in patent US5691312A, “Pharmaceutical for subcutaneous or intramuscular administration containing polypeptides” (Behringwerke Aktiengesellschaft, priority 1989, dated 1997).
# How the values were obtained:
# [1] = additive for sc or im administration of proteins; WO 86/06962 and EP-A-0,292,908; cited from earlier work
# [2] = Bioavailability and/or tolerability of polypeptides administered sc or im with added amino acid (general statements); assay type: in vivo, rats or rabbits; conditions: amino acid additives, sc or im administration
# Protocol: (§1) Each ml of the thawed solutions from Example 1 was administered sc and im (femoral biceps) in animals (rats or rabbits). In the case of im administration, the total volume of 1 ml was divided between four types of injection.
# (§2) After 0, 15, 30, 60, 120, 180, 240 and 340 minutes (r-t-PA mutant) or 0, 30, 60, 120, 180, 240, 300, 360, 420 and 450 minutes (r-t-PA, hirudin, urokinase AT III, F XIII, von Willebrand, EPO, PP4), blood samples (+ citrate) were taken. The blood samples were then immediately centrifuged and the resulting citrate plasma was frozen at -20° C. until the determination. The plasma concentration of the test substance was measured as follows:
# (§3) The area under the curve (AUC) was then calculated. This value is an expression of the bioavailability and makes possible comparison between the different presentation forms.
# [3] = Hemorrhages at the administration site, hirudin; assay type: in vivo, rat
# Protocol: as §1
# (§4) Number of animals with hemorrhages
# [4] = Hemorrhages at the administration site, urokinase; assay type: in vivo, rabbit; conditions: for Number of animals with hemorrhages: 0.05 M tris, 5 mg/kg
# Protocol: as §1, §4
# [5] = Bioavailability of t-PA in the rat (plasma concentration by ELISA, AUC); assay type: in vivo; conditions: n=2, 3.3/8.2 mg/kg
# Protocol: Each ml of the thawed solutions from Example 1 was administered sc and im (femoral biceps) in animals (rats or rabbits). In the case of im administration, the total volume of 1 ml was divided between four types of injection. […]
# as §2
# r-t-PA ELISA (Biopool, Sweden)
# as §3
# I. Bioavailability of t-PA in the rat
# [6] = Death of animals after sc/im administration; assay type: in vivo; conditions: buffer 5 (0.05 M tris, 0.1 M NaCl pH 7.5, 0.1% Tween 80, 50 mg/ml hydroxylamine), rat, 3.3/8.2 mg/kg
# Protocol: as §1
# [7] = presentation form according to the invention versus customary presentation forms
molecule,measurement,setting,value
NO [hydroxylamine],tolerability,[1],limited tolerability
CN [methylamine],tolerability,[1],limited tolerability
"EPO: r-erythropoietin (EPO); 1 mg of EPO corresponds to 80,000 U of EPO antigen",influence on the bioavailability and/or improvement in the tolerability,[2],favorable influence
F XIII: F XIII (Fibrogammin) obtained from Behringwerke,influence on the bioavailability and/or improvement in the tolerability,[2],favorable influence
Hirudin,Number of animals with hemorrhages,"[3]; 0.05 M tris, 0.1 M NaCl, im, 10 mg/kg",3/3
same,animal died as a result of the hemorrhages,"[3]; 0.05 M tris, 0.1 M NaCl, im, 10 mg/kg, of 3 animals",1 animal
same,Number of animals with hemorrhages,"[3]; 0.05 M tris, 0.1 M NaCl, sc, 10 mg/kg",2/3
same,Number of animals with hemorrhages,"[3]; 0.2 M arginine, 0.2 M lysine pH 7.5, im, 10 mg/kg",0/3
same,Number of animals with hemorrhages,"[3]; 0.2 M arginine, 0.2 M lysine pH 7.5, sc, 10 mg/kg",0/3
same,hemorrhages at the administration site on sc and im administration,[3]; [7],distinctly less
same,influence on the bioavailability and/or improvement in the tolerability,[2],favorable influence
"PP4: PP4 (placenta protein 4) prepared by the process of EP 0,123,307",influence on the bioavailability and/or improvement in the tolerability,[2],favorable influence
Urokinase,Number of animals with hemorrhages,"[4]; 0.1 M NaCl pH 7.5, im",2/3
same,Number of animals with hemorrhages,"[4]; 0.1 M NaCl pH 7.5, sc",2/3
same,hemorrhages at the administration site on sc and im administration,[4]; [7],distinctly less
same,influence on the bioavailability and/or improvement in the tolerability,[2],favorable influence
antithrombin III,influence on the bioavailability and/or improvement in the tolerability,[2],favorable influence
t-PA: r-t-PA (Actilyse) purchased from Boehringer Ingelheim; tissue plasminogen activator,AUC + Variation (%),"[5]; buffer 1 (0.05 M tris, 0.1 M NaCl), im",358 ± 10%
same,AUC + Variation (%),"[5]; buffer 1 (0.05 M tris, 0.1 M NaCl), sc",36 ± 13%
same,AUC + Variation (%),"[5]; buffer 2 (idem buffer 1, pH 4.5), im",386 ± 2%
same,AUC + Variation (%),"[5]; buffer 2 (idem buffer 1, pH 4.5), sc",53 ± 14%
same,AUC + Variation (%),"[5]; buffer 3 (0.2 M arginine, 0.2 M lysine pH 7.5), im",756 ± 2%
same,AUC + Variation (%),"[5]; buffer 3 (0.2 M arginine, 0.2 M lysine pH 7.5), sc",423 ± 3%
same,AUC + Variation (%),"[5]; buffer 4 (0.2 M arginine, 0.2 M lysine pH 4.5), im",669 ± 17%
same,AUC + Variation (%),"[5]; buffer 4 (0.2 M arginine, 0.2 M lysine pH 4.5), sc",382 ± 11%
same,AUC + Variation (%),"[5]; buffer 7 (0.05 M tris, 0.1 M NaCl pH 7.5, 0.1% Tween 80, 3% dimethyl sulfoxide), im",184 ± 18%
same,AUC + Variation (%),"[5]; buffer 7 (0.05 M tris, 0.1 M NaCl pH 7.5, 0.1% Tween 80, 3% dimethyl sulfoxide), sc",87 ± 12%
same,AUC + Variation (%),"[5]; buffer 8 (0.2 M arginine pH 7.5), im",600 ± 4%
same,AUC + Variation (%),"[5]; buffer 8 (0.2 M arginine pH 7.5), sc",320 ± 2%
same,AUC + Variation (%),"[5]; buffer 9 (0.2 M lysine pH 7.5), im",610 ± 10%
same,AUC + Variation (%),"[5]; buffer 9 (0.2 M lysine pH 7.5), sc",290 ± 11%
same,animals died,[6]; im,all animals died
same,animals died,[6]; sc,all animals died
same,influence on the bioavailability and/or improvement in the tolerability,[2],favorable influence
"von Willebrand factor: prepared by the process of DE 3,904,354 (1 mg of vW corresponds to 100 U of vW antigen)",influence on the bioavailability and/or improvement in the tolerability,[2],favorable influence
